# In PMC11490884 (The Journal of Biological Chemistry, 2024):
# T1: ASAP1 SH3 domain (aa. 1083–1147) (mouse, UniProt Q9QWY8 1083-1147)
# T1 sequence (looked up): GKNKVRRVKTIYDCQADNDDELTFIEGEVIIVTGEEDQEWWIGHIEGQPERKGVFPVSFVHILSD
# Target: T1, ASAP1 SH3 domain (aa. 1083–1147)
# Assay: ITC
Kd [nM],fold weakening of the interaction against the wild-type gAnkB peptide [fold],Binder,also measured
–,~105,"GIKKPVERKLKE (peptide, UniProt Q01484 1699-1710, looked up) [gAnkB peptide R1705E]",–
–,~264,"GIKEPVRRKLKE (peptide, UniProt Q01484 1699-1710, looked up) [gAnkB peptide K1702E]",–

# The remaining lines, values behind:
Binder,Kd [nM],fold weakening of the interaction against the wild-type gAnkB peptide [fold],also measured
"IPPDETQSTQKQHKPSLGIKKPVRRKLKEKQKQKEEGLQASAEKAELKKG (domain or fragment, human, UniProt Q01484 1682-1731, looked up) [gAnkB (aa. 1682–1731)]",~140,–,–
"GIKKPVRRKLKE (peptide, UniProt Q01484 1699-1710, looked up) [12-residue peptide derived from gAnkB (aa. 1699–1710)]",~190,–,–
"GIKKGVRRKLKE (peptide, UniProt Q01484 1699-1710, looked up) [gAnkB peptide P1703G]",–,–,fold decrease of the binding affinity against the wild-type gAnkB peptide: ~3 fold
